Laboratory results as given in PMC9482650, “Quantitative fragmentomics allow affinity mapping of interactomes” (Nature Communications, 2022).
Blank lines part the entries; values can stand above or below the binder they belong to.

Assays:
Test in all cases: holdup assay
Set-up in all cases: key: below the threshold = too weak to quantify, mostly under pKd 3.1 to 4
ARHGEF11, O15085 = target: T1, ARHGEF11, O15085
T1 sequence (O15085 42-136, limits assumed, looked up): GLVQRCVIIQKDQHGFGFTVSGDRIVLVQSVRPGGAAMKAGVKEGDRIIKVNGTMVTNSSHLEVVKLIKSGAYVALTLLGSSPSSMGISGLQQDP

CASK, O14936 = target: CASK, O14936
Sequence of CASK, O14936 (O14936 487-570): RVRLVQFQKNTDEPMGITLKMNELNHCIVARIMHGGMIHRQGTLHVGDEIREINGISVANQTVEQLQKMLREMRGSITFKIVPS

DFNB31_1, Q9P202 = target: T2, DFNB31_1, Q9P202
T2 sequence (Q9P202 135-233, limits assumed, looked up): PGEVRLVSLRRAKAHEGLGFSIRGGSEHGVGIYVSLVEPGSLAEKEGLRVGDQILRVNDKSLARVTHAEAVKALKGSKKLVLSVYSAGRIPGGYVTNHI

DFNB31_2, Q9P202 = target: T3, DFNB31_2, Q9P202
T3 sequence (Q9P202 274-371, limits assumed, looked up): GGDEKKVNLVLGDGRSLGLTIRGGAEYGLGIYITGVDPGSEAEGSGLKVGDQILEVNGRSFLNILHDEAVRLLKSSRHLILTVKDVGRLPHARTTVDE

DLG1_2, Q12959 = target: DLG1_2, Q12959
Sequence of DLG1_2, Q12959 (Q12959 314-412): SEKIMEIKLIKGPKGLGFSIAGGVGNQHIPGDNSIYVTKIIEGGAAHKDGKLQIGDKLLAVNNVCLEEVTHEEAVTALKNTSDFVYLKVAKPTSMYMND

DLG5_1, Q8TDM6 = target: DLG5_1, Q8TDM6
Sequence of DLG5_1, Q8TDM6 (Q8TDM6 617-713): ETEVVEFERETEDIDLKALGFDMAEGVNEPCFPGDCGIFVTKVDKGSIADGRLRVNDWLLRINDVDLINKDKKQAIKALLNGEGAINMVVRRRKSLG

FRMPD2_1, Q68DX3 = target: FRMPD2_1, Q68DX3
Sequence of FRMPD2_1, Q68DX3 (Q68DX3 770-861): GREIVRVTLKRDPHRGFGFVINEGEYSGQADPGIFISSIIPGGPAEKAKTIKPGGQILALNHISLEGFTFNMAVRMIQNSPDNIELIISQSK

FRMPD3, Q5JV73 = target: FRMPD3, Q5JV73
Sequence of FRMPD3, Q5JV73 (Q5JV73 12-100): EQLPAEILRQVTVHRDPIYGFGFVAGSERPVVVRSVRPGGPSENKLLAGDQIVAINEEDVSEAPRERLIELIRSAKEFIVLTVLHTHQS

GIPC2, Q8TF65 = target: GIPC2, Q8TF65
Sequence of GIPC2, Q8TF65 (Q8TF65 112-203): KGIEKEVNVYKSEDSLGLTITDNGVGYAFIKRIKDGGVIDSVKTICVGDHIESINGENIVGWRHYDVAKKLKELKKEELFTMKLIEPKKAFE

GRIP1_3, Q9Y3R0 = target: T4, GRIP1_3, Q9Y3R0
T4 sequence (Q9Y3R0 247-346, limits assumed, looked up): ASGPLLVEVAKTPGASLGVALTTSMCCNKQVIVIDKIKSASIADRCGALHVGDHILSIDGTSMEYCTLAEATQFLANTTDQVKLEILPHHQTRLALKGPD

GRIP2_7, Q9C0E4 = target: GRIP2_7, Q9C0E4
Sequence of GRIP2_7, Q9C0E4 (Q9C0E4 934-1023): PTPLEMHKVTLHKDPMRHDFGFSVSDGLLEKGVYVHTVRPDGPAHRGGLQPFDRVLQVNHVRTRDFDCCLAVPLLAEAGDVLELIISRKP

Inadl_5, Q8NI35 = target: Inadl_5, Q8NI35
Sequence of Inadl_5, Q8NI35 (Q8NI35 673-780): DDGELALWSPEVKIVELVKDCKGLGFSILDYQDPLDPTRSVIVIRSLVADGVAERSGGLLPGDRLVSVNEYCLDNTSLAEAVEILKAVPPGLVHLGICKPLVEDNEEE

LIN7C, Q9NUP9 = target: T5, LIN7C, Q9NUP9
T5 sequence (Q9NUP9 88-185, limits assumed, looked up): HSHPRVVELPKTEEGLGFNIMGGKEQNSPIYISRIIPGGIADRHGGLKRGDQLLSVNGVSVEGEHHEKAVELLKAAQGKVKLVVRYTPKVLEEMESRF

LNX2_3, Q8N448 = target: T6, LNX2_3, Q8N448
T6 sequence (Q8N448 463-564, limits assumed, looked up): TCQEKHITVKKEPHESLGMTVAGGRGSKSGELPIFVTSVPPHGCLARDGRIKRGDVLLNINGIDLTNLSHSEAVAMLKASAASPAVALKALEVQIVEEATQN

MAGI1_2, Q96QZ7 = target: MAGI1_2, Q96QZ7
Sequence of MAGI1_2, Q96QZ7 (Q96QZ7 456-580): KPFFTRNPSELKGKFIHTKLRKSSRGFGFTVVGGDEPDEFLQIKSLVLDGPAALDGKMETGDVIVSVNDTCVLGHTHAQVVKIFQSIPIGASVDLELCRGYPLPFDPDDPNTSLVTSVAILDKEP

MAGI2_2, Q86UL8 = target: MAGI2_2, Q86UL8
Sequence of MAGI2_2, Q86UL8 (Q86UL8 410-522): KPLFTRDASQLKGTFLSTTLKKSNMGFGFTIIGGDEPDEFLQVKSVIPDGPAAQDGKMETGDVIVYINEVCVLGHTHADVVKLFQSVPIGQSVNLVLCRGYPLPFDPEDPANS

MAGI2_4, Q86UL8 = target: MAGI2_4, Q86UL8
Sequence of MAGI2_4, Q86UL8 (Q86UL8 772-865): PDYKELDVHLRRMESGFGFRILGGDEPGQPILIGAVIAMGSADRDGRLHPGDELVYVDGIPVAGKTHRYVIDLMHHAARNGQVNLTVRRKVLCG

MAST1, Q9Y2H9 = target: MAST1, Q9Y2H9
Sequence of MAST1, Q9Y2H9 (Q9Y2H9 962-1065): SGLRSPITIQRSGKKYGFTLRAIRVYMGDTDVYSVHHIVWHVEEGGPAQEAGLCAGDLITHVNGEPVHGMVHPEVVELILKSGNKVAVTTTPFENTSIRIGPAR

MPP2, Q14168 = target: T7, MPP2, Q14168
T7 sequence (Q14168 180-250, limits assumed, looked up): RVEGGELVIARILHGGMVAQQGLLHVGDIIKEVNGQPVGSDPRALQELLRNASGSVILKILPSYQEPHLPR

PARD3B_1, Q8TEW8 = target: T8, PARD3B_1, Q8TEW8
T8 sequence (Q8TEW8 196-299, limits assumed, looked up): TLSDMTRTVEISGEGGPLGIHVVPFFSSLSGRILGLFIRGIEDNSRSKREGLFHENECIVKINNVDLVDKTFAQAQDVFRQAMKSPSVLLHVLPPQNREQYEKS

RADIL, Q96JH8 = target: T9, RADIL, Q96JH8
T9 sequence (Q96JH8 971-1071, limits assumed, looked up): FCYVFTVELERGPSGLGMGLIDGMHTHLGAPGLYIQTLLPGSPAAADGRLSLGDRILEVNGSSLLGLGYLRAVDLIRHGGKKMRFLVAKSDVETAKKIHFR

SIPA1L2, Q9P2F8 = target: T10, SIPA1L2, Q9P2F8
T10 sequence (Q9P2F8 945-1036, limits assumed, looked up): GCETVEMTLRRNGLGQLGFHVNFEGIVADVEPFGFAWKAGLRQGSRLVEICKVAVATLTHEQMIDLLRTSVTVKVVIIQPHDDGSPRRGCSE

SNTG2, Q9NY99 = target: T11, SNTG2, Q9NY99
T11 sequence (Q9NY99 68-166, limits assumed, looked up): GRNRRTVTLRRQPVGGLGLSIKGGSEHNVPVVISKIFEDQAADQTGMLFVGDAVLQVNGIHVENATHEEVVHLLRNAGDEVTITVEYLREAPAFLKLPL

TJP1_2, Q07157 = target: TJP1_2, Q07157
Sequence of TJP1_2, Q07157 (Q07157 181-274): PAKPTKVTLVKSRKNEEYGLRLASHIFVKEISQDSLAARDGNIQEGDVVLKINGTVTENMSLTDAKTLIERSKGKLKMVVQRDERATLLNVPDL

TJP2_1, Q9UDY2 = target: TJP2_1, Q9UDY2
Sequence of TJP2_1, Q9UDY2 (Q9UDY2 24-128): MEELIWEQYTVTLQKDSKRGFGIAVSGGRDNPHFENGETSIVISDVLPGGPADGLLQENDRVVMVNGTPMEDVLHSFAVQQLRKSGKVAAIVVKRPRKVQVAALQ

TJP3_3, O95049 = target: T12, TJP3_3, O95049
T12 sequence (O95049 375-456, limits assumed, looked up): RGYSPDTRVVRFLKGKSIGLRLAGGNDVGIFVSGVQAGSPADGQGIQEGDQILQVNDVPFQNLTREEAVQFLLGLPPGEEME

[1] = plain residues with an end cap or a label only (N-terminal biotin on a linker: ahx)
[2] = plain residues with an end cap or a label only (N-terminal biotin on a linker: ado-ado)

Binder: TESNLQTSSC [CGN, Q9P2M7]
pKd (ARHGEF11, O15085; [1]): below the threshold
pKd (CASK, O14936; [1]): below the threshold
pKd (DFNB31_1, Q9P202; [1]): below the threshold
pKd (DFNB31_2, Q9P202; [1]): below the threshold
pKd (DLG1_2, Q12959; [1]): below the threshold
pKd (DLG5_1, Q8TDM6; [1]): below the threshold
pKd (FRMPD2_1, Q68DX3; [1]): below the threshold
pKd (FRMPD3, Q5JV73; [1]): below the threshold
pKd (GIPC2, Q8TF65; [1]): 3.78
pKd (GRIP1_3, Q9Y3R0; [1]): below the threshold
pKd (GRIP2_7, Q9C0E4; [1]): below the threshold
pKd (Inadl_5, Q8NI35; [1]): below the threshold
pKd (LIN7C, Q9NUP9; [1]): below the threshold
pKd (LNX2_3, Q8N448; [1]): below the threshold
pKd (MAGI1_2, Q96QZ7; [1]): below the threshold
pKd (MAGI2_2, Q86UL8; [1]): below the threshold
pKd (MAGI2_4, Q86UL8; [1]): 3.53
pKd (MAST1, Q9Y2H9; [1]): below the threshold
pKd (MPP2, Q14168; [1]): below the threshold
pKd (PARD3B_1, Q8TEW8; [1]): below the threshold
pKd (RADIL, Q96JH8; [1]): below the threshold
pKd (SIPA1L2, Q9P2F8; [1]): below the threshold
pKd (SNTG2, Q9NY99; [1]): below the threshold
pKd (TJP1_2, Q07157; [1]): below the threshold
pKd (TJP2_1, Q9UDY2; [1]): below the threshold
pKd (TJP3_3, O95049; [1]): below the threshold

Binder: GTGYDRKDYV [CLDN3, O15551]
pKd (ARHGEF11, O15085; [2]): 3.9
pKd (CASK, O14936; [2]): below the threshold
pKd (DFNB31_1, Q9P202; [2]): below the threshold
pKd (DFNB31_2, Q9P202; [2]): below the threshold
pKd (DLG1_2, Q12959; [2]): below the threshold
pKd (DLG5_1, Q8TDM6; [2]): 3.59
pKd (FRMPD2_1, Q68DX3; [2]): below the threshold
pKd (FRMPD3, Q5JV73; [2]): below the threshold
pKd (GIPC2, Q8TF65; [2]): below the threshold
pKd (GRIP1_3, Q9Y3R0; [2]): below the threshold
pKd (GRIP2_7, Q9C0E4; [2]): below the threshold
pKd (Inadl_5, Q8NI35; [2]): 3.49
pKd (LIN7C, Q9NUP9; [2]): below the threshold
pKd (LNX2_3, Q8N448; [2]): below the threshold
pKd (MAGI1_2, Q96QZ7; [2]): below the threshold
pKd (MAGI2_2, Q86UL8; [2]): below the threshold
pKd (MAGI2_4, Q86UL8; [2]): 3.85
pKd (MAST1, Q9Y2H9; [2]): 4.03
pKd (MPP2, Q14168; [2]): below the threshold
pKd (PARD3B_1, Q8TEW8; [2]): 3.51
pKd (RADIL, Q96JH8; [2]): 4.12
pKd (SIPA1L2, Q9P2F8; [2]): below the threshold
pKd (SNTG2, Q9NY99; [2]): below the threshold
pKd (TJP1_2, Q07157; [2]): 3.6
pKd (TJP2_1, Q9UDY2; [2]): 3.94
pKd (TJP3_3, O95049; [2]): 3.73

Other lines, results leading:

pKd (ARHGEF11, O15085; [2]): 4.38
pKd (CASK, O14936; [2]): below the threshold
pKd (DFNB31_1, Q9P202; [2]): 4.17
pKd (DFNB31_2, Q9P202; [2]): below the threshold
pKd (DLG1_2, Q12959; [2]): 4.48
pKd (DLG5_1, Q8TDM6; [2]): below the threshold
pKd (FRMPD2_1, Q68DX3; [2]): below the threshold
pKd (FRMPD3, Q5JV73; [2]): below the threshold
pKd (GIPC2, Q8TF65; [2]): below the threshold
pKd (GRIP1_3, Q9Y3R0; [2]): below the threshold
pKd (GRIP2_7, Q9C0E4; [2]): below the threshold
pKd (Inadl_5, Q8NI35; [2]): below the threshold
pKd (LIN7C, Q9NUP9; [2]): below the threshold
pKd (LNX2_3, Q8N448; [2]): below the threshold
pKd (MAGI1_2, Q96QZ7; [2]): below the threshold
pKd (MAGI2_2, Q86UL8; [2]): 4.04
pKd (MAGI2_4, Q86UL8; [2]): 3.48
pKd (MAST1, Q9Y2H9; [2]): 4.97
pKd (MPP2, Q14168; [2]): below the threshold
pKd (PARD3B_1, Q8TEW8; [2]): 4.03
pKd (RADIL, Q96JH8; [2]): 4
pKd (SIPA1L2, Q9P2F8; [2]): below the threshold
pKd (SNTG2, Q9NY99; [2]): 4.19
pKd (TJP1_2, Q07157; [2]): below the threshold
pKd (TJP2_1, Q9UDY2; [2]): 3.6
pKd (TJP3_3, O95049; [2]): below the threshold
Binder: RDPPAEWTRV [PTPN18, Q99952]

pKd (ARHGEF11, O15085; [1]): below the threshold
pKd (CASK, O14936; [1]): below the threshold
pKd (DFNB31_1, Q9P202; [1]): 3.55
pKd (DFNB31_2, Q9P202; [1]): below the threshold
pKd (DLG1_2, Q12959; [1]): 3.97
pKd (DLG5_1, Q8TDM6; [1]): below the threshold
pKd (FRMPD2_1, Q68DX3; [1]): below the threshold
pKd (FRMPD3, Q5JV73; [1]): below the threshold
pKd (GIPC2, Q8TF65; [1]): below the threshold
pKd (GRIP1_3, Q9Y3R0; [1]): below the threshold
pKd (GRIP2_7, Q9C0E4; [1]): below the threshold
pKd (Inadl_5, Q8NI35; [1]): below the threshold
pKd (LIN7C, Q9NUP9; [1]): below the threshold
pKd (LNX2_3, Q8N448; [1]): below the threshold
pKd (MAGI1_2, Q96QZ7; [1]): below the threshold
pKd (MAGI2_2, Q86UL8; [1]): below the threshold
pKd (MAGI2_4, Q86UL8; [1]): below the threshold
pKd (MAST1, Q9Y2H9; [1]): below the threshold
pKd (MPP2, Q14168; [1]): below the threshold
pKd (PARD3B_1, Q8TEW8; [1]): below the threshold
pKd (RADIL, Q96JH8; [1]): below the threshold
pKd (SIPA1L2, Q9P2F8; [1]): below the threshold
pKd (SNTG2, Q9NY99; [1]): below the threshold
pKd (TJP1_2, Q07157; [1]): below the threshold
pKd (TJP2_1, Q9UDY2; [1]): below the threshold
pKd (TJP3_3, O95049; [1]): below the threshold
Binder: APSRKLNTEI [TIAM1, Q13009]

pKd (ARHGEF11, O15085; [2]): below the threshold
pKd (CASK, O14936; [2]): below the threshold
pKd (DFNB31_1, Q9P202; [2]): below the threshold
pKd (DFNB31_2, Q9P202; [2]): below the threshold
pKd (DLG1_2, Q12959; [2]): 3.67
pKd (DLG5_1, Q8TDM6; [2]): below the threshold
pKd (FRMPD2_1, Q68DX3; [2]): below the threshold
pKd (FRMPD3, Q5JV73; [2]): 4.82
pKd (GIPC2, Q8TF65; [2]): below the threshold
pKd (GRIP1_3, Q9Y3R0; [2]): below the threshold
pKd (GRIP2_7, Q9C0E4; [2]): 4.59
pKd (Inadl_5, Q8NI35; [2]): below the threshold
pKd (LIN7C, Q9NUP9; [2]): 4.1
pKd (LNX2_3, Q8N448; [2]): below the threshold
pKd (MAGI1_2, Q96QZ7; [2]): below the threshold
pKd (MAGI2_2, Q86UL8; [2]): below the threshold
pKd (MAGI2_4, Q86UL8; [2]): 4.13
pKd (MAST1, Q9Y2H9; [2]): 4.01
pKd (MPP2, Q14168; [2]): below the threshold
pKd (PARD3B_1, Q8TEW8; [2]): 4.48
pKd (RADIL, Q96JH8; [2]): below the threshold
pKd (SIPA1L2, Q9P2F8; [2]): below the threshold
pKd (SNTG2, Q9NY99; [2]): below the threshold
pKd (TJP1_2, Q07157; [2]): 5.12
pKd (TJP2_1, Q9UDY2; [2]): below the threshold
pKd (TJP3_3, O95049; [2]): below the threshold
Binder: RSSGGDDFWF [KCNV1, Q6PIU1]
